In patent publication US12122830 (ABL BIO, dated 2024):

Legend:
[1] = target: T1, human ROR1 expressed on the cell surface (human, UniProt Q01973 30-937); experiment: flow cytometry on H1437 cells (lung cancer), C2E3 IgG at 10 µg/mL, MFI of anti-ROR1 / MFI of 2nd Ab
T1 construct: whole, on cells; On JeKo-1 and Mino cells and other cancer cell lines (endogenous) and on transfected CHO and MC38 cells; also called cell surface-expressed ROR1; CHO-human ROR1
Procedure: (§1) For the cell lines, the binding to ROR1 was analyzed with FACS (FACSCalibur, BD Biosciences) by using the anti-ROR1 antibody of the present invention.
(§2) Specifically, after disassociating each cell line and washing in PBS, the number of cells was counted and set as 2 ×10^5 cells/200 µl PBS, and then the clone C2E3 among ROR1 monoclonal antibodies prepared in Example 3 was treated in 10 µg/mL, and it was reacted at 4° C. for 1 hour. After reaction, cells were washed in PBS, and then the FITC-labeled constant region (Fc)-specific antibody (Goat anti-human IgG FITC conjugate, Fc specific, Sigma, F9512, concentration: 2.0 mg/ml) was suspended in 2 µl/1 ×10^5 cells/200 µl PBS, and it was reacted at 4° C. for 1 hour. After reaction, cells were washed in PBS, it was analyzed using a FACSCalibur device. The negative control group was treated only with the FITC-labeled constant region (Fc)-specific antibody. To compare the expression degrees of ROR1 among the cancer cell lines, the value of the result for the peak shift in the experimental group treated with the ROR1 monoclonal antibody (C2E3) of the present invention was divided by the result for the peak shift in the control group (Mean Fluorescence Intensity Ratio MFI Ratio: MFI of anti-ROR1/MFI of 2nd Ab).

[2] = target: T1, human ROR1 expressed on the cell surface; experiment: flow cytometry on Kasumi-2 cells (ALL), C2E3 IgG at 10 µg/mL, MFI of anti-ROR1 / MFI of 2nd Ab
Procedure: as §1, §2

[3] = target: T1, human ROR1 expressed on the cell surface; experiment: flow cytometry on Jurkat cells (T cell leukemia), C2E3 IgG at 10 µg/mL, MFI of anti-ROR1 / MFI of 2nd Ab
Procedure: as §1, §2

[4] = target: T1, human ROR1 expressed on the cell surface; experiment: flow cytometry on HCT116 cells (colon cancer), C2E3 IgG at 10 µg/mL, MFI of anti-ROR1 / MFI of 2nd Ab
Procedure: as §1, §2

[5] = target: T1, human ROR1 expressed on the cell surface; experiment: flow cytometry on A549 cells (lung cancer), C2E3 IgG at 10 µg/mL, MFI of anti-ROR1 / MFI of 2nd Ab
Procedure: as §1, §2

[6] = target: T1, human ROR1 expressed on the cell surface; experiment: flow cytometry on JeKo-1 cells (MCL), C2E3 IgG at 10 µg/mL, MFI of anti-ROR1 / MFI of 2nd Ab
Procedure: as §1, §2

[7] = target: T1, human ROR1 expressed on the cell surface; experiment: flow cytometry on 697 cells (ALL), C2E3 IgG at 10 µg/mL, MFI of anti-ROR1 / MFI of 2nd Ab
Procedure: as §1, §2

[8] = target: T1, human ROR1 expressed on the cell surface; experiment: flow cytometry on HCC70 cells (breast cancer), C2E3 IgG at 10 µg/mL, MFI of anti-ROR1 / MFI of 2nd Ab
Procedure: as §1, §2

[9] = target: T1, human ROR1 expressed on the cell surface; experiment: flow cytometry on HCC1143 cells (breast cancer), C2E3 IgG at 10 µg/mL, MFI of anti-ROR1 / MFI of 2nd Ab
Procedure: as §1, §2

[10] = target: T1, human ROR1 expressed on the cell surface; experiment: flow cytometry on HCC1187 cells (breast cancer), C2E3 IgG at 10 µg/mL, MFI of anti-ROR1 / MFI of 2nd Ab
Procedure: as §1, §2

[11] = target: T2, recombinant ROR1-His (Sino Biological, 13968-H08H) (human, UniProt Q01973 30-406); experiment: BLI (Octet), ROR1-His loaded on biosensor, IgG in solution, 1:1 fitting
T2 construct: extracellular domain; Bought; also called human ROR1 antigen; not shown: His tag
Procedure: A 96 well black microplate (greiner bio one) in a biosensor tray case was installed, and 200 µl of 10×KB or D.W was put in 8 wells each. 8 sensors, Anti Penta His biosensors or AR2G biosensors (ForteBio, USA), were placed for 10 min for hydration. 600 µl of Analytic samples were diluted 2 folds or 3 folds to desired concentrations. It was diluted using 1×KB or 10×KB to reach a concentration of 30~0.021 nM. For antigen fixation, 1 µg/mL of a recombinant ROR1-His (Sino Biological, 13968-H08H) was diluted with 10×KB or Sodium Acetate pH5 buffer. For fixation, threshold was set to be 0.3 nmat the loading step. The experiment was performed for 3 min~10 min of association and for 20 min of dissociation. The prepared buffer was put into a new 96 well black microplate in accordance with octet program template in order. 10×KB or D.W 200 µl used as Baseline1 was put. 200 µl of the antigen ROR1-His protein (1 µg/mL) was loaded. 10×KB or D.W 200 µl used as Baseline2 was put. 200 µl of 10×KB buffer or 1×KB corresponding the diluted antibody in 30~0.021 nM, Reference blank was put into each well. The temperature of the experimental plate was fixed at 30° C. After placing all samples, the device was activated. After the experiment was finished, the result was uploaded on Octet Analysis 9.0 software, and then KD value was calculated using 1:1 fitting, and the result was described in the following Table 6. […]

T1 sequence (Q01973 30-937): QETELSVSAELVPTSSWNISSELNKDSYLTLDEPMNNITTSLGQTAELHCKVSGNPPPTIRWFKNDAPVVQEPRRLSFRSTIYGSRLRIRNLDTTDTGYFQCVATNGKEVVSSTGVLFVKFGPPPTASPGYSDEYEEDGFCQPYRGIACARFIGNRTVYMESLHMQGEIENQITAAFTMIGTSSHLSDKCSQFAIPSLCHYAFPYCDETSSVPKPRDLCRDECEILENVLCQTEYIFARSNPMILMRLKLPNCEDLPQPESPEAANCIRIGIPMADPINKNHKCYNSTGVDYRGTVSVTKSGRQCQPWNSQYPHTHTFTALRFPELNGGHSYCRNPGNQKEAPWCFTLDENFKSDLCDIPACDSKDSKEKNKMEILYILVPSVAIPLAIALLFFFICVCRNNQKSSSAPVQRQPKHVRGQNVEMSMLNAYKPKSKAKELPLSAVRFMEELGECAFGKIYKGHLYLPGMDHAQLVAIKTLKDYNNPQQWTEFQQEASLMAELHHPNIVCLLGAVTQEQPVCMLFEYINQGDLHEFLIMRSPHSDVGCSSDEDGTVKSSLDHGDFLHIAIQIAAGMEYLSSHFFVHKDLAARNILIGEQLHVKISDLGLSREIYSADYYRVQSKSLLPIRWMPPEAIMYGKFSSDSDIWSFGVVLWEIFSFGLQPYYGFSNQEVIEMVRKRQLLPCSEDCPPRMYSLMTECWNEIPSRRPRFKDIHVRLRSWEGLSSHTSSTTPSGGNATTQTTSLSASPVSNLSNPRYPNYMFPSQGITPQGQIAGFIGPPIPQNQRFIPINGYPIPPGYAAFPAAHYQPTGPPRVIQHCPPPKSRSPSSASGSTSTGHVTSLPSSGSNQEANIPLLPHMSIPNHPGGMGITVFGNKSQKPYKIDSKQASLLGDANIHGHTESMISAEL
T2 sequence (Q01973 30-406): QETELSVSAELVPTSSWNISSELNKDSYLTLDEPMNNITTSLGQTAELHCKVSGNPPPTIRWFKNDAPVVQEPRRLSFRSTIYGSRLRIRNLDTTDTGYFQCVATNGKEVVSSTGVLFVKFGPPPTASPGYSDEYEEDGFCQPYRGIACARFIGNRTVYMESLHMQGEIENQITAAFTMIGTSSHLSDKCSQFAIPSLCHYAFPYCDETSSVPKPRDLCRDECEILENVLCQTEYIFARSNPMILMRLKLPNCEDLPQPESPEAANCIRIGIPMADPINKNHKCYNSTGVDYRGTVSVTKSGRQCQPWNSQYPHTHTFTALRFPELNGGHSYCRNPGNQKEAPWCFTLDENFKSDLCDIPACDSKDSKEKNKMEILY

Mean Fold Ratio [1]: 4.1
Mean Fold Ratio [2]: 11.5
Mean Fold Ratio [3]: 1.7
Mean Fold Ratio [4]: 18
Mean Fold Ratio [5]: 6
Mean Fold Ratio [6]: 4
Mean Fold Ratio [7]: 12
Mean Fold Ratio [9]: 3.2
Mean Fold Ratio [10]: 9.3
Kd [11]: 0.424 nM
koff [11]: 0.00231 s⁻¹
B1: C2E3 anti-ROR1 IgG antibody (antibody, V domains shown)
VH: EVQLLESGGGLVQPGGSLRLSCAASGFTFSNYAMSWVRQAPGKGLEWVSSISHNSGSTYYADSVKGRFTISRDNSKNTLYLQMNSLRAEDTAVYYCAKFISARKSLGRSYSNGMDVWGQGTLVTVSS
VL: QSVLTQPPSASGTPGQRVTISCTGSSSNIGSNDVTWYQQLPGTAPKLLIYADSKRPSGVPDRFSGSKSGTSASLAISGLRSEDEADYYCGTWDYSLSGYVFGGGTKLTVLG
Mean Fold Ratio [8]: 3.8
